Assay results from paper PMC10001230, “A Role for the V0 Sector of the V-ATPase in Neuroexocytosis: Exogenous V0d Blocks Complexin and SNARE Interactions with V0c” (Cells, 2023).
One block for each binder: values may come before it.

B1: His6-T7-HSV tagged full-length V0c-subunit (natural protein, rat, UniProt P63081 1-155, looked up)
chain: MADIKNNPEYSSFFGVMGASSAMVFSAMGAAYGTAKSGTGIAAMSVMRPELIMKSIIPVVMAGIIAIYGLVVAVLIANSLTDGITLYRSFLQLGAGLSVGLSGLAAGFAIGIVGDAGVRGTAQQPRLFVGMILILIFAEVLGLYGLIVALILSTK
notes: V-ATPase V0 sector subunit c (V0c), full length; also called HSV-V0c; 6His-V0c; source: E. coli OverExpress C43(DE3), membranes solubilized in 2% FosCholine-12, purified (Ni-NTA)
B2: Full-length V0c-L3.4s mutant (V0c with scrambled loop 3.4) (natural protein, rat, UniProt P63081 1-155, looked up)
chain: MADIKNNPEYSSFFGVMGASSAMVFSAMGAAYGTAKSGTGIAAMSVMRPELIMKSIIPVVMAGIIAIYGLVVAVLIANSLTDGITLYRSFLQLGAGLSVGLSGLAAGFAIGIVGDAGQATVQPLGRRFVGMILILIFAEVLGLYGLIVALILSTK
notes: Cloned in pET28 (EcoR1/Sal1); source: E. coli OverExpress C43(DE3), purified (Ni-NTA)
B4: Complexin1-GST (natural protein, rat, UniProt P63041 1-134, looked up)
chain: MEFVMKQALGGATKDMGKMLGGDEEKDPDAAKKEEERQEALRQAEEERKAKYAKMEAEREVMRQGIRDKYGIKKKEEREAEAQAAMEANSEGSLTRPKKAIPPGCGDEPEEEDESILDTVIKYLPGPLQDMFKK
notes: Legends call it GST-complexin although GST stands downstream of complexin in the construct; also called GST-complexin; immobilized complexin; source: E. coli BL21, purified; not shown: GST, C-terminal, kept

Tests used:
Conditions in all cases: both partners purified
GST-V0d1 [1] = molecular target: T1, GST-V0d1 (rat, UniProt Q5M7T6 1-351); assay: ELISA; V0c, VAMP2, t-SNARE, complexin, trimeric SNARE complex with or without complexin immobilized; GST-V0d1 or GST 50 nM; detected with anti-GST; GST binding subtracted
T1 construct: rat V-ATPase V0 sector subunit d1 (V0d1), amplified from an adult rat brain cDNA library and inserted EcoR1/Sal1 into pGEX-5x-1; the forward primer begins at the codon after the first methionine (SFFPEL), the reverse primer ends at the stop codon; also called immobilized V0d1; source: E. coli BL21, purified (Glutathione-Sepharose)
T1 sequence (Q5M7T6 entry or part of it): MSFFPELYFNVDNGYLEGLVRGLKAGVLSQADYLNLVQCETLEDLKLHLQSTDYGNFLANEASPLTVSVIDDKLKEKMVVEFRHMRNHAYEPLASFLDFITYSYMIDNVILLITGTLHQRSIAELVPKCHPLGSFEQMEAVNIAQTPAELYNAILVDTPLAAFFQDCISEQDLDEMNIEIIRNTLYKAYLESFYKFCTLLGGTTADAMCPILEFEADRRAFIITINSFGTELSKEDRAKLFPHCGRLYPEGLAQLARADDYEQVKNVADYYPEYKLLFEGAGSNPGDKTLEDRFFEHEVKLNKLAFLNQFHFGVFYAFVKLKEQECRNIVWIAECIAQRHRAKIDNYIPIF

GST-V0d1 [2] = molecular target: T1, GST-V0d1; assay: SPR; GST-V0d1 and GST amine-coupled on consecutive flow cells; V0c (50 nM, with or without 2 µM soluble GST-V0d1), V0c L1.2s or V0c L3.4s injected; 25 °C; GST signal subtracted
[3] = molecular target: B1; assay: ELISA; His-tagged complexin immobilized (1 µg/well); V0c 20 nM with or without VAMP2 100 nM, overnight 4 °C in 50 mM Tris-HCl pH 7.5, 150 mM NaCl, 3% BSA, 0.1% Triton X-100; detected with anti-HSV
[4] = molecular target: B1; assay: SPR; Complexin1-GST and GST amine-coupled on the chip; V0c, V0c L1.2s or V0c L3.4s 50 nM injected for 2 min; 25 °C, HBS with or without 0.2% CHAPS; GST signal subtracted
[5] = molecular target: B2; assay: as above
Complexin1-GST = molecular target: B4; assay: SPR; competition: V0c 100 nM preincubated or not with L1.2 or L3.4 peptides (10 µM) and injected on immobilized GST-complexin; 25 °C
GST-V0d1 [6] = molecular target: T1, GST-V0d1; assay: SPR; competition: V0c 50 nM injected over immobilized GST-V0d1 in the presence of an excess of GST or GST-complexin, or of L1.2 or L3.4 peptides; GST flow cell subtracted

Binder: B1
binding result (GST-V0d1 [1]): binds

Binder: B2
binding result (GST-V0d1 [2]): binds

binding result [3]: binds
B3: Complexin1-His (natural protein, rat, UniProt P63041 1-134, looked up)
chain: MEFVMKQALGGATKDMGKMLGGDEEKDPDAAKKEEERQEALRQAEEERKAKYAKMEAEREVMRQGIRDKYGIKKKEEREAEAQAAMEANSEGSLTRPKKAIPPGCGDEPEEEDESILDTVIKYLPGPLQDMFKK
notes: also called His-tagged complexin; source: E. coli BL21, purified

Binder: B4
binding result [4]: binds | binding result [5]: binds

binding result (Complexin1-GST): binds | binding result (GST-V0d1 [6]): binds
B5: V0c L1.2 peptide (aa 35-KSGTGIAAMSVMRPELIMKS-54) (peptide)
peptide: KSGTGIAAMSVMRPELIMKS
notes: V0c cytosolic loop 1.2; printed as aa 35-54; also called loop 1.2 peptide; free L1.2 peptide; source: synthetic peptide (Genecust)
